From paper PMC2174006

Biological target: Flag–Rab32 (human) (UniProt Q13637)
Assay: co-IP

Flag–Rab32 (human), sequence (Q13637 whole entry): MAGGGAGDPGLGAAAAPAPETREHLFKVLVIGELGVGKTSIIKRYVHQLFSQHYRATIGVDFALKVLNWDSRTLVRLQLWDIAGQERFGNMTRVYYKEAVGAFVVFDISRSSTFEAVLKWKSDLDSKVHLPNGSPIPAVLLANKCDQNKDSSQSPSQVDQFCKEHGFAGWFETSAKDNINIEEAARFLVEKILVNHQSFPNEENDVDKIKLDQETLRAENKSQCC
endogenous PKA holoenzyme, sequence (P13861 whole entry, one chain of several): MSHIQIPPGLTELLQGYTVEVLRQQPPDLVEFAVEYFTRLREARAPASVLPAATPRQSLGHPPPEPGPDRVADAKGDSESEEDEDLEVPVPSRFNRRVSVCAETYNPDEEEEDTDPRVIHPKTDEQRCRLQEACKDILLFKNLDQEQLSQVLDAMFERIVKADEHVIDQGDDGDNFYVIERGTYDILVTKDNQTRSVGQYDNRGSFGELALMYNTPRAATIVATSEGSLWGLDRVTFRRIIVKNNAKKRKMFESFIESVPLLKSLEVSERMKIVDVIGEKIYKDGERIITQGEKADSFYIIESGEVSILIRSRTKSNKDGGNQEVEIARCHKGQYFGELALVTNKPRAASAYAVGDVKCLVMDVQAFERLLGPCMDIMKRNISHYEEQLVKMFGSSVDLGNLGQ

Substance: endogenous PKA holoenzyme (from UniProt P13861 1-404; P17612 1-351) (complex)
- fold enrichment of PKA activity in the immune complexes: 7.1 fold
